Assay results published in patent publication US20160075789A1.

B1: mAbEDA1-EctoD2 (antibody, mouse IgG1, V domains shown)
VH: EVMLEESGGGLVKSGGSLKLSCAASGFTFSTYAMSWVRQTPGKRLEWVAAISDGGDNTYYLDSVKGRFTISRDNAKNTLYLQMSSLRSEDSALYYCARQYNDYEAMDYWGQGTSLTVSS
VL: DIVLTQSPTSLAVSLGQRATISCRASESVDSYGSSFMHWYQQKPGQPPKLLFYRASNLESGIPARFSGSGSRTDFTLTINPVEADDVATYYCQQSNEDPFTFGSGTKLEIKR
B2: mAbEDA1-EctoD3 (antibody, mouse IgG1, V domains shown)
VH: QVQLHQSGAELARPGASVKLSCKASGYTFTSYGISWVKQRTGQGLEWIGEVYPRSGDTYYHDYFEGKATLTADKSSSTAYMELRSLTSEDSAVYFCARGDYADVWGTGTTVTVSS
VL: DIVLTQSPASLAVSLGQRATISCRASKSVSTFGNSYMLWYQQKPGQPPKLLIYLASNLESGVPARFSGSGSGTDFTLNIHPVEEEDAATYYCQNSRELPYTFGGGTKLEIKR

Columns and labels:
Fc-EDA1 (human) [1] = experiment: sandwich ELISA of Fc-EDA1 pre-incubated in buffer or mouse serum (FIG. 26)
Sequence of Fc-EDA1 (human) (Q92838 249-385): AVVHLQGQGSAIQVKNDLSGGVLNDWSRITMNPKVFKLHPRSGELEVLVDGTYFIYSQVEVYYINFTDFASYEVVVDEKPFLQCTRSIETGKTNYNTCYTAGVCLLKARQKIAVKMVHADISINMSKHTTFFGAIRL

Fc-EDA1 (human) [2] = experiment: cell-based or functional assay
Fc-EDA1 (human) [3] = experiment: sandwich ELISA, EctoD2 at capture, biotinylated EctoD3 at revelation (FIG. 24)

Binder	most sensitive detection of Fc-EDA1 (Fc-EDA1 (human) [1]) [ng/mL]	cytotoxicity assay using EDAR-Fas Jurkat cells (PMS/MTS viability): antibody concentration at which 40 ng/mL of Fc-EDA1 is completely inhibited (Fc-EDA1 (human) [2]) [ng/mL]	cytotoxicity assay using EDAR-Fas Jurkat cells: stoichiometry of inhibition (antibodies per Fc-EDA1) (Fc-EDA1 (human) [2])	concentration of Fc-EDA1 readily detected (Fc-EDA1 (human) [3]) [ng/mL]
B1	< 1	125	5	< 1
B2	< 1			< 1
